In US20260274928A1 (VIR BIOTECHNOLOGY, published 2026):
Where two headings read alike, the source gives them in different places.

What was measured:
[1] = biological target: T1, SARS-CoV S glycoprotein (SARS-CoV, UniProt P59594 14-1255); assay: cell-based or functional assay
[2] = biological target: T1, SARS-CoV S glycoprotein; assay: cell-based or functional assay; remark: listed apart in the source
[3] = biological target: T1, SARS-CoV S glycoprotein; assay: cell-based or functional assay; remark: listed apart in the source
[4] = biological target: SARS-CoV-2 CH.1.1 S glycoprotein (SARS-CoV-2 CH.1.1); assay: cell-based or functional assay
[5] = biological target: T2, SARS-CoV-2 Wuhan-Hu-1 RBD (SARS-CoV-2 Wuhan-Hu-1, UniProt P0DTC2 328-531); assay: RBD binding affinity (SPR, see Example 5)
T2 construct: range 328-531

[6] = biological target: SARS-CoV-2 mouse/rabbit Fc-tagged RBD (SARS-CoV-2, UniProt P0DTC2 319-541)
[7] = biological target: T2, SARS-CoV-2 Wuhan-Hu-1 RBD; assay: BLI, Fab on immobilized Wuhan-Hu-1 RBD (FIG. 25)

Binder | IC50 [3] | IC50 [4] | Kd [5] | IC50 (read off the curve) [6] | also measured
S2V29-v37.2 (antibody, V domains shown) VH: EVQLVESGGSVVQPGRALRLSCAASGITFSSFGMYWVRQAPGKGLEWLGYIAYDGSDTYYADSVKGRFTISRDNSKNTLYLQMNSLRIEDTAVYYCAKDYYPLLSYYYGLDVWGQGTTVTVSS VL: QSVLTQPRSVSGSPGQSVTISCTGTSSDVGAYNYVSWYQQHPGKAPKFMIYDVDQRPSGVPDRFSGSKSGNTASLIISGLQAEDEADYYCSSYAGSYIWVFGGGTQLTVL | 6 ng·mL | 0.0089 µg/mL | 0.16 nM |  | fold improvement in neutralization [1]: 100 fold; FC IC50 par/IC50 Var [2]: 21.7 fold; IC50 [2]: 0.0077 µg/mL; FC vs v1.2 [3]: 116 fold; FC vs S2V29-v1.2 [4]: 1.3 fold
S2V29-v1.2 (antibody, V domains shown) VH: EVQLVESGGSVVQPGRALRLSCAASGITFSSFGMYWVRQAPGKGLEWLGVIAYDGSNTYYADSVKGRFTISRDNSKNTLYLQMNSLRIEDTAVYYCAKDYYPLLSYYYGLDVWGQGTTVTVSS VL: QSVLTQPRSVSGSPGQSVTISCTGTSSDVGAYNYVSWYQQHPGKAPKFMIYDVDQRPSGVPDRFSGSKSGNTASLIISGLQAEDEADYYCSSYAGSYIWVFGGGTQLTVL | 689 ng·mL | 0.0112 µg/mL | < 0.02 nM |  | 
S2V29-v1.1 (antibody, V domains shown) VH: EVQLVESGGSVVQPGRALRLSCAASGITFSSFGMYWVRQAPGKGLEWLGVIAYDGSNTYYADSVKGRFTISRDNSKNTLYLQMNSLRIEDTAVYYCAKDYYPLLSYYYGLDVWGQGTTVTVSS VL: QSVLTQPRSVSGSPGQSVTISCTGTSSDVGAYNYVSWYQQHPGKAPKFMIYDVDQRPSGVPDRFSGSKSGNTASLIISGLQAEDEADYYCCSYAGSYIWVFGGGTQLTVL |  |  |  | ~0.02 µg/mL | 
S3L17 (antibody, V domains shown) VH: EVQLVESGGGLVQPGGSLRLSCAASEIIVSSNYMNWVRQAPGKGLEWVSVIYAGGSTFYADSVRGRFTISRDNSKNTLYLQMNSLRPDDTAIYYCARDLGPWGMDVWGQGTTVTVSS VL: DIQMTQSPSSLSASVGDRVAITCRASHGINNDLAWYQQKPGKVPKLLIYAASTLQSGVPSRFSGSGSGTDFTLTISSLQPEDVATYYCQHYSSDPRFTFGPGTKVDIK |  |  | 0.07 nM | ~0.02 µg/mL | 
S3I2 (antibody, V domains shown) VH: EVQLVETGGGLIQPGGSLTLSCAASGLVVSYNYMTWVRQAPGKGLEWLSVIYAGGSTFYADSVKGRFTVSRDNSNNTLYLQMNNLRAEDTAVYFCARWGQVRFTSEEAYYKYGLDVWGQGTTVTVSS VL: DIQLTQSPSFLSASVGDRVTITCRASQGISNYLAWYQQRPGKAPKLLIFTASTLQSGVSSRFSGSGSGTEFTLTISSLQPEDLATYYCQQLNSNLQGTFGQGTRVEIK |  |  |  | ~0.03 µg/mL | 
S2K146 Fab (Fab, V domains shown) VH: QVQLVESGGVVVQPGGSLRLSCAASGFTFHDHTMHWVRQAPGKGLEWVSLITWNGGTIHYSDSVKGRFTISRDNSKNSLYLQMNSLRTEDTALYYCAKDLGRGGWYLPSDAWGQGTLVTVSS VL: not shown |  |  |  |  | binding result [7]: binds
